Sequences and labels used below:
B1: 3252_C13 (antibody, V domains shown)
VH: QVQLQESGPGLVKPSETLSLTCTVSGASISSDYWSWIRLPPGKGLEWIGYIYNRGSTKYTPSLKSRVTISLDTAENQFSLRLRSVTAADTAIYYCARHVGGHTYGIDYWGQGTLVTVSS
VL: DIQMTQSPSSLSASVGDRVTITCRASQSISNYLNWYQHKPGEAPKLLNYAASSLQSGVPSRFSASGSGTDFTLTISSLQPEDFATYYCQQSYNTPITFGQGTRLEIK
B2: 3362_B11 (antibody, V domains shown)
VH: QVQLQASGPGLVKPSETLSLTCTVSGDSITSGAYYWTWIRQHPGKGLEWIGYIYYSGNTYYNPSLKSRVTISLDTSKNQFSLKVNSVTAADTAVYYCARAASTSVLGYGMDVWGQGTTVTVSS
VL: B1 VL with N31R, H38Q, K39E, E42K, N48V, A64G, N93S, I96L
B3: 3420_I23 (antibody, V domains shown)
VH: QVQLQESGPGLVKPSETLSVTCKVSGDSISSYSWSWIRQPPGKGLEWVGYLYYSGSTKYNPSLKSRTTISVDTSTNQLSLKLSFVTAADTAVYFCARTGSESTTGYGMDVWGQGTTVTVSS
VL: B1 VL with N31T, H38Q, E42K, N48I, Q55H, A64G, T72A, N93S, T94P
B4: 3255_J06 (antibody, V domains shown)
VH: B1 VH with I92V
VL: B1 VL with T74S, S77G, Q100P
B5: 3241_G23 (antibody, V domains shown)
VH: QVQLQQSGPGLVKPSQTLSLTCTVSGGPVSGGGYSWNWIRQRPGQGLEWVGFMFHSGSPRYNPTLKSRITISVDTSKNLVSLKLSSVTAADTAVYFCARVGQMDKYYAMDVWGQGTTVTVSS
VL: DIQMTQSPSSLSSSVGDRVTITCRASQSIGAYVNWYQQKAGKAPQVLIFGASNLQSGVPSRFSGSGSGTDFTLTISSLQPEDFATYFCQQTYSTPITFGQGTRLEIK
B6: 3139_P23 (antibody, V domains shown)
VH: QVQLQESGPRLVKPSESLSLTCTVSGGSISNSFWGWIRQPPGEGLEWIGYVYNSGNTKYNPSLKSRVTISRDTSKSQLYMKLRSVTAADTAVYYCARHDDASHGYSISWGHGTLVTVSS
VL: DIQMTQSPSSLSASVGDRVTITCRASQTISTYLNWYQQKSGKAPKLLIYAASGLQSGVPSRFSGSGSGTDFTLTISSLQPEDFATYFCQQSYNTPLTFGQGTKVEIK
B7: 3253_P10 (antibody, V domains shown)
VH: QVQLQESGPGLLKPSDTLALTCTVSGGSITSDYWSWIRQPPGRGLDWIGFFYNGGSTKYNPSLKSRVTISADTSKNQLSLKLTSVTAADTGVYYCARHDAKFSGSYYVASWGQGTRVTVSS
VL: DIQMTQSPSSLSASVGDRVTISCRASQSISTYLNWYQQQPGKAPKVLISGATDLQSGVPSRFSGSGSGTDFTLTISSLQPEDFATYYCQQSYNTPLIFGQGTKLEIK
B8: 3243_J07 (antibody, V domains shown)
VH: B7 VH with A100V
VL: B7 VL with D53N
B9: 3244_I10 (antibody, V domains shown)
VH: B7 VH
VL: B7 VL with S49F, D53N
B10: 3136_G05 (antibody, V domains shown)
VH: QVQLQESGPGLVKPSETLSLTCSVSGGSISSDFWSWIRQPPGKGLEWIGYVYNRGSTKYSPSLKSRVTISADMSKNQFSLNMSSVTAADTAVYYCAKNGRSSTSWGIDVWGKGTTVTVSS
VL: DIQMTQSPSSLSASVGDRLTITCRASQSISTYLHWYQQKPGKAPKLLIYAASSLQSGVPSRFSGSRSGTDFTLTISSLQPDDFATYYCQQSYSPPLTFGPGTKVDMK
B11: 3259_J21 (antibody, V domains shown)
VH: QVQLQESGPRVVRPSETLSLTCTVSGGSISSYNWIWIRQPPGKGLEWIGHIYDYGRTFYNSSLQSRPTISVDASKNQLSLRLTSVTASDTAVYYCARPLGILHYYAMDLWGQGTTVTVSS
VL: DIQMTQSPLSVSVSVGDRVTIACRASQSIDKFLNWYQQKPGKAPKLLIYGASNLHSGAPSRFSASGSGTDFTLTITNIQTEDFATYLCQQSFSVPAFGGGTKVEIK
B12: TCN-032 (8I10) (antibody, V domains shown)
VH: QVQLQESGPGLVKPSETLSLTCTVSGSSISNYYWSWIRQSPGKGLEWIGFIYYGGNTKYNPSLKSRVTISQDTSKSQVSLTMSSVTAAESAVYFCARASCSGGYCILDYWGQGTLVTVS
VL: DIQMTQSPSSLSASVGDRVTITCRASQNIYKYLNWYQQRPGKAPKGLISAASGLQSGVPSRFSGSGSGTDFTLTITSLQPEDFATYYCQQSYSPPLTFGGGTRVEIK
B13: 3260_D19 (antibody, V domains shown)
VH: DMQLVESGGGLVPPGGSLRLSCAASGFSVSDNYINWVRQAPGKGLDWVSVFYSADRTSYADSVKGRFTVSSHDSKNTVYLQMNSLRAEDTAVYYCARVQKSYYGMDVWGQGTTVTVSS
VL: GIQMTQSPSSLSASVGDRVTITCRASQSISRYLNWYLQKPGKAPKLLISGASSLQSGVPSRFSGTGSGTEFTLTISSLQPEDFATYYCQQTFSIPLFGQGTKVEIK
B14: 3242_P05 (antibody, V domains shown)
VH: B13 VH
VL: B13 VL
B15: 3248_P18 (antibody, V domains shown)
VH: QVQLQESGPGLVKPSETLSLTCTVSGGSISAYHWSWIRQPPGKGLEWIGHIFDSGSTYYNPSLKSRVTISLDASKNQLSLRLTSVTASDTAIYYCARPLGSRYYYGMDVWGQGTTVTVSS
VL: DIQMTQSPSSLSASVGDRVTITCRASQSISRYLNWYQQKPGKAPKLLIYGASTLQNGAPSRFSGSGSGTDFTLTISSLQPEDSATYLCQQSYSVPAFGGGTKVEVK
B16: 3244_H04 (antibody, V domains shown)
VH: EVQLVESGGGLVQPGGSLRLSCTASGLSVSSTYMNWVRQAPGKGLEWVSVFYSETRTYYADSVKGRFTVSRHNSNNTLYLQMNSLRAEDTAVYYCARVQRLSYGMDVWGQGTTVTVSS
VL: DIQMTQSPSSLSASVGDRVTITCRASQSISTYLNWYQKRPGKAPKLLVYGASSLQSGVPSRFSGSGSGTDFTLTIASLQPEDSAVYYCQQTYSIPLFGQGTRLEIK
B17: 3245_O19 (antibody, V domains shown)
VH: B16 VH with A87V
VL: B16 VL with S53T, V85T

These results are taken from patent US20110070235A1.

Changes are numbered by the printed parent chain. Where “and” joins values, the source holds several entries; their conditions need not be identical. Equal values may be shown once.

The first experiment addresses M2 protein of A/Hong Kong/483/1997, expressed on cells (Influenza A virus A/Hong Kong/483/1997 (H5N1)).
Experiment: not given
For the molecule B1, the FACS M2-HK MFI was determined as 449 MFI.
With B2, the FACS M2-HK MFI is 218 MFI.
The same measure, in the same setting: next, B3: 112 MFI.
Same read-out and setting: with B4 the figure was 442 MFI.
On the same count and under the same terms, next, B5: 1700 MFI; B6: 110 MFI.
For B7, the FACS M2-HK MFI worked out at 43 MFI.
The same measure, in the same setting: with B8 the figure was 131 MFI; with B9, 434 MFI.
On the same count and under the same terms, with B10 the figure was 109 MFI.
As to B11, the FACS M2-HK MFI was determined as 1670 MFI.
The same measure, in the same setting: with B12 the figure was 754 MFI and 1080 MFI.
For B13, the FACS M2-HK MFI came out at 846 MFI.
On to B14, for which the FACS M2-HK MFI stood at 596 MFI.
Still for that read-out and setting: next, B15: 967 MFI.
Same read-out and setting: with B16 the figure was 963 MFI; with B17, 919 MFI.

The target of a further experiment is M2e. Description: peptide ELISA, mAb 5 ug/mL.
Take TCN-032 (8I10) (antibody): the ELISA A450 came to 0.13.
